What was measured:
recombinant human PEX = molecular target: T1, recombinant human PEX (Homo sapiens, UniProt P78562); experiment: Membrane-bound endopeptidase assay, hydrolysis by PEX-expressing COS cell membranes (HPLC); assay type: biochemical; details: for hydrolysis of the peptide in the presence of PEX: 10 μg peptide, COS cell membranes expressing PEX, HPLC at 214 nm, FIG. 8
T1 construct: excising the full length PEX cDNA that was then inserted into pcDNA3 vector; expressed in transfected cells; host or cells: COS-7 cells, transient transfection with pPEX (pcDNA3); 100,000 x g membrane fraction
T1 sequence (P78562 1-749): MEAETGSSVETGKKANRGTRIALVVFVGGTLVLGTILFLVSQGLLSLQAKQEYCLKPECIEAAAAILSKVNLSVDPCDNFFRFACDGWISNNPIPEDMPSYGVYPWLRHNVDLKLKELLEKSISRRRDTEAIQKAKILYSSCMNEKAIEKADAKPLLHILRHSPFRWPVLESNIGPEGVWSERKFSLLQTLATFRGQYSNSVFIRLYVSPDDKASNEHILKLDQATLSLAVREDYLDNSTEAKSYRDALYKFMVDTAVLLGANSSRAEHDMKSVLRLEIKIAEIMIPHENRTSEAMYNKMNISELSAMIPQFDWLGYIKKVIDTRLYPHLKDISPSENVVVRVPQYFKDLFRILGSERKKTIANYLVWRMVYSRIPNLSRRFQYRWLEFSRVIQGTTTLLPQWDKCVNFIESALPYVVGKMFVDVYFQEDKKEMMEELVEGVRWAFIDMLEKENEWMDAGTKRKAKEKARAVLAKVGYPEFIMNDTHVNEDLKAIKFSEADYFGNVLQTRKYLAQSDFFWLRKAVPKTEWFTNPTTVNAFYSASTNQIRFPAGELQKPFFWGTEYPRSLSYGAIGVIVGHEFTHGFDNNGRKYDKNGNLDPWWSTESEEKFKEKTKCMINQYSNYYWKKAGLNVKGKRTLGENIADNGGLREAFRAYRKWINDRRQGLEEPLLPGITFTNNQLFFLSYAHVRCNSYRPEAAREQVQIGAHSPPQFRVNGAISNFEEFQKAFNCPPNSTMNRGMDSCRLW
Description: (§1) COS-7 cells transiently transfected with pcDNA3 vector alone, with vector containing human NEP cDNA (generous gift of P. Crine, Université de Montréal), or with pPEX plasmid, were washed and scraped in PBS. Following brief centrifugation, the cell pellets were resuspended in 50 mM Tris-HCl, pH 7.4 and disrupted by sonication. Homogenates were fractionated by sequential centrifugation at 1,000×g for 10 min and then at 100,000×g for 60 min. The final precipitate was washed with 50 mM Tris-HCl, pH 7.4, resuspended in the same buffer, and assayed for endopeptidase activity. The protein concentration in membrane fractions was determined by the method of Bradford with bovine serum albumin as standard.
[D-Ala^2,Leu^5] enkephalin (500 μM) was incubated with COS cell membrane preparations (˜60 μg of protein) in 100 mM Tris-HCl, pH 7.0, at 37° C. for 30 min (final volume 30 μl). The reaction was terminated by the addition of 100 μl 0.1% TFA (v/v). Production of Tyr-D-Ala-Gly was monitored using reversed-phase HPLC (Bondpak C-18 reverse phase column, Waters) with a U.V. detector set at 214 nm. A linear solvent gradient of 0% B to 40% B in 60 min was used with a flow rate of 1.5 ml/min (mobile phase A=0.1% TFA (v/v); mobile phase B=80% acetonitrile/0.1% TFA). Tyr-D-Ala-Gly was identified by co-chromatography with marker synthetic peptide. For assessing PEX endopeptidase activity, 10 μg of PTH [1-38] and PTH [1-34] peptides (Peninsula Laboratories; Belmont, Calif.) were added to the membrane preparations. For HPLC analysis of hydrolysis products, a linear solvent gradient of 0% to 50% solution B was used at a rate of 1.5 ml/min. MALDI-TOF mass spectrometry was performed on specific peptide fragments.

recombinant human NEP = molecular target: T2, recombinant human NEP (Homo sapiens, UniProt P08473); experiment: Membrane-bound endopeptidase assay, hydrolysis by NEP-expressing COS cell membranes (HPLC); assay type: biochemical; details: 500 μM substrate, 37° C., 30 min; FIG. 7B
T2 construct: expressed in transfected cells; host or cells: COS-7 cells, transient transfection; 100,000 x g membrane fraction
Description: as §1
[D-Ala^2,Leu^5] enkephalin (500 μM) was incubated with COS cell membrane preparations (˜60 μg of protein) in 100 mM Tris-HCl, pH 7.0, at 37° C. for 30 min (final volume 30 μl). The reaction was terminated by the addition of 100 μl 0.1% TFA (v/v). Production of Tyr-D-Ala-Gly was monitored using reversed-phase HPLC (Bondpak C-18 reverse phase column, Waters) with a U.V. detector set at 214 nm. A linear solvent gradient of 0% B to 40% B in 60 min was used with a flow rate of 1.5 ml/min (mobile phase A=0.1% TFA (v/v); mobile phase B=80% acetonitrile/0.1% TFA). Tyr-D-Ala-Gly was identified by co-chromatography with marker synthetic peptide. […]

T2 sequence (P08473 whole entry): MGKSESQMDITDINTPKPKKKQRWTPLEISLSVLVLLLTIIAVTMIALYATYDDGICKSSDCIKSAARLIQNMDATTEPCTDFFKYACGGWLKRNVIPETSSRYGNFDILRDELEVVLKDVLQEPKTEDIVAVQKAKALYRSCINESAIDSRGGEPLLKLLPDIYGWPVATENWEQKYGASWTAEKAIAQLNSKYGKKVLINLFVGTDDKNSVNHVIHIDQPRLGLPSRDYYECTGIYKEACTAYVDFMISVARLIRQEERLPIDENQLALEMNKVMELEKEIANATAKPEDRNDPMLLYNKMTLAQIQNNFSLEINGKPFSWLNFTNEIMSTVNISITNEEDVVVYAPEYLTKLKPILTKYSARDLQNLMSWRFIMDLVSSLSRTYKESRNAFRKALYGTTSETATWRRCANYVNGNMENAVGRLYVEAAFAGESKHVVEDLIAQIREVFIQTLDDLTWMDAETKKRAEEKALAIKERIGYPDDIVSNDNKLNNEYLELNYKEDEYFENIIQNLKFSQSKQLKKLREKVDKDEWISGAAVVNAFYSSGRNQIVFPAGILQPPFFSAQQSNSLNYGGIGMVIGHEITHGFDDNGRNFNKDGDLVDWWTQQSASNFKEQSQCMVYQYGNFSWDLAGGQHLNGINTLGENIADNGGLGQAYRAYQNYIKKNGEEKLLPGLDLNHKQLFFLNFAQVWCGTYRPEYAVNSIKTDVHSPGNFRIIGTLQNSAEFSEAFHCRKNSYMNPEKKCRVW

Substance | hydrolysis of the peptide in the presence of PEX (recombinant human PEX) | production of Tyr-D-Ala-Gly from the substrate, PEX membranes (recombinant human PEX; 500 μM substrate, 37° C., 30 min, FIG. 7C) | production of Tyr-D-Ala-Gly from the substrate, NEP membranes (recombinant human NEP)
PTH [1-34]: human parathyroid hormone peptide 1-34 (Peninsula Laboratories), used as PEX substrate | hydrolyzed | – | –
PTH [1-38]: human parathyroid hormone peptide 1-38 (Peninsula Laboratories), used as PEX substrate (SVSEIQLMHNLGKHLNSMERVEWLRKKLQDVHNFVALG) | hydrolyzed | – | –
[D-Ala^2, Leu^5] enkephalin | – | evident only in NEP-expressing membrane preparations | evident only in NEP-expressing membrane preparations

From US7393837B2, “Inhibition of PEX in the treatment of metabolic bone diseases” (McGill University, priority 1998, dated 2008)
